Positions count from the first letter of the chain named. Values joined by “and” are separate entries in the source; they are usually repeats but may differ in a detail not shown here. Identical values can stand only once. Like-named read-outs stand apart in the source and are kept apart here. Each block holds one binder with its values, some of them ahead of it.
Experiments:
[1] = biological target: T1, extracellular domain of human CD73 protein (CD73-ECD), C-terminus polyhistidine-tagged (UniProt P21589 27-547); test: enzyme inhibition; right table
T1 chain: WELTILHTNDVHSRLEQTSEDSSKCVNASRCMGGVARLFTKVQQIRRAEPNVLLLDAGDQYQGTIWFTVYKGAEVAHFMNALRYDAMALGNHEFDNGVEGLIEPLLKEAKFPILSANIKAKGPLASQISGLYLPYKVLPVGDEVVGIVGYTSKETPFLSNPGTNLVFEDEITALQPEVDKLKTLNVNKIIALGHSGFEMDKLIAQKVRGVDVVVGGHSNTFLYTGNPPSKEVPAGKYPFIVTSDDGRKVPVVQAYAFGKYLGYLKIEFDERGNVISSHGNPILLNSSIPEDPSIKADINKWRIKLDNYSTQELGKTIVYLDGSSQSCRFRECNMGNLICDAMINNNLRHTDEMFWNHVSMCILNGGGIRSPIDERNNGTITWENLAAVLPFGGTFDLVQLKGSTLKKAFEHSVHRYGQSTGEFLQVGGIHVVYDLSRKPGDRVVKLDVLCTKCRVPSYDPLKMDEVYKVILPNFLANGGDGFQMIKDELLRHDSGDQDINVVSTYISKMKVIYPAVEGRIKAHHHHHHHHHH

[2] = biological target: T2, CD73 on the surface of human tumor cells (human, UniProt P21589 27-549); test: FACS; MDA-MB-231 cells, right table
T2 chain: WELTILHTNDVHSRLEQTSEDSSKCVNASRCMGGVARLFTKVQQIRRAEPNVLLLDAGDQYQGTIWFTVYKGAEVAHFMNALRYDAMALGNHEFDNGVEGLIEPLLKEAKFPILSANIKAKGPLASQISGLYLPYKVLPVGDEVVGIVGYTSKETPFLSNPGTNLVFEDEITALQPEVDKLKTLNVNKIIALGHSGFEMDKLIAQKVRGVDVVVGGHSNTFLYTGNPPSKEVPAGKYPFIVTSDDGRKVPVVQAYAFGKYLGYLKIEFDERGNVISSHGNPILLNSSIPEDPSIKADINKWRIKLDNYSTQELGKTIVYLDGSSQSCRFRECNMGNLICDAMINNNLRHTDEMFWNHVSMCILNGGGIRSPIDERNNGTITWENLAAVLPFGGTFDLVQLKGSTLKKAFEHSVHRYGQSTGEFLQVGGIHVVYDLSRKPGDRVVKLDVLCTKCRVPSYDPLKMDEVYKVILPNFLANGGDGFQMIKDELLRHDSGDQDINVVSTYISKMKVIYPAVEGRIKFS

[3] = biological target: T1, extracellular domain of human CD73 …; test: ELISA
[4] = biological target: T2, CD73 on the surface of human tumor cells; test: FACS; NCI-H1299 cells, right table
[5] = biological target: T3, Carbon-terminal polyhistidine-labeled recombinant cynomolgus monkey CD73 enzyme (cynomolgus monkey, UniProt A0A2K5V5U7 1-547); test: enzyme inhibition; right table
T3 chain: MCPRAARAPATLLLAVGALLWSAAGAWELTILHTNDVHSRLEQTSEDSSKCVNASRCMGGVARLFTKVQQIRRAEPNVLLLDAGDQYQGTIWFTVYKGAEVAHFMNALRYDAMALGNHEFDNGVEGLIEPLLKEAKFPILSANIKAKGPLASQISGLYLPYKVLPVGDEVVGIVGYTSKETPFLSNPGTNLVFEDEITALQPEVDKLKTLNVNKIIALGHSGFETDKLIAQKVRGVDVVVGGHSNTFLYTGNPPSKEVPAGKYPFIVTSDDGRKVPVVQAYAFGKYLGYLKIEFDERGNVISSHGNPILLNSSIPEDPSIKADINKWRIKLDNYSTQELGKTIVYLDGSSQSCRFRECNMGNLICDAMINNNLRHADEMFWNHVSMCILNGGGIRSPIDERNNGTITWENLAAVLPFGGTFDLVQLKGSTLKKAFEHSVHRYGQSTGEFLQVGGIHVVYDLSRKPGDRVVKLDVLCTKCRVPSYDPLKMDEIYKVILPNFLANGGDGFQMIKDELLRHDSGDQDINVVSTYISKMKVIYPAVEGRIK

[6] = biological target: T3, Carbon-terminal polyhistidine-labeled …; test: enzyme inhibition; left table
[7] = biological target: T2, CD73 on the surface of human tumor cells; test: FACS; MDA-MB-231 cells, left table
[8] = biological target: T2, CD73 on the surface of human tumor cells; test: FACS; NCI-H1299 cells, left table
[9] = biological target: T1, extracellular domain of human CD73 …; test: enzyme inhibition; left table
[10] = biological target: T2, CD73 on the surface of human tumor cells; test: inhibition of cell-surface CD73 enzyme activity; right panel
[11] = biological target: T2, CD73 on the surface of human tumor cells; test: FACS; NCI-H1299 cells, right table
[12] = biological target: T2, CD73 on the surface of human tumor cells; test: FACS; NCI-H1299 cells, left table
[13] = biological target: T2, CD73 on the surface of human tumor cells; test: FACS; MDA-MB-231 cells, left table
[14] = biological target: T2, CD73 on the surface of human tumor cells; test: inhibition of cell-surface CD73 enzyme activity; left panel
[15] = biological target: T2, CD73 on the surface of human tumor cells; test: FACS; MDA-MB-231 cells, right table
[16] = biological target: T1, extracellular domain of human CD73 …; test: ELISA

- IC50 [1]: 120 pM
- EC50 [2]: 514 pM
- EC50 [3]: 109 pM
- EC50 [4]: 1240 pM
- IC50 [5]: 280 pM
B1: Hu001c-31 (antibody, V domains shown)
VH: QVQLVQSGAEVKKPGASVKVSCKASGYTFTNYYIYWVRQAPGQRLEWIGWIYPGNLNIKYNEKFKGRSTLTADKSASTAYMELSSLRSEDTAVYYCARDDNYAWFAYWGQGTLVTVSS
VL: DIQMTQSPSSLSASVGDRVTITCKASQDVSTAVAWYQQKPGKAPKLLIYWTNTRHTGVPSRFSGSGSGTDHTLTISSLQPEDFATYYCQQHYSTPFTFGQGTKLEIK

- IC50 [1]: 60 pM
- IC50 [6]: 110 pM
- EC50 [7]: 449 pM
- EC50 [2]: 626 pM
- EC50 [8]: 1330 pM
- EC50 [3]: 108 pM
- EC50 [4]: 1160 pM
- IC50 [9]: 60 pM
- IC50 [5]: 100 pM
B2: Hu001c-14 (antibody, V domains shown)
VH: B1 VH with A24T, I48M, S68V, L70I, K74T
VL: B1 VL

- IC50 [6]: 80 pM
- EC50 [7]: 522 pM
- EC50 [8]: 1420 pM
- EC50 [3]: 32 pM
- IC50 [9]: 30 pM
B3: Hu001c-22 (antibody, V domains shown)
VH: B1 VH with R38K, A40R, S68V, L70I
VL: B1 VL

- IC50 [1]: 30 pM
- IC50 [6]: 40 pM
- EC50 [7]: 432 pM
- EC50 [8]: 1280 pM
- EC50 [3]: 26 pM
- IC50 [9]: 20 pM
- IC50 [5]: 40 pM
B4: Hu001c-24 (antibody, V domains shown)
VH: B1 VH with A24T, R38K, A40R, R44G, S68V, L70I
VL: B1 VL

- IC50 [6]: 340 pM
- EC50 [7]: 435 pM
- EC50 [3]: 33 pM
- IC50 [9]: 300 pM
B5: Hu001c-25 (antibody, V domains shown)
VH: B1 VH with S68V, L70I
VL: B1 VL with A43S

- IC50 [1]: 40 pM
- IC50 [6]: 70 pM
- EC50 [7]: 400 pM
- EC50 [2]: 593 pM
- EC50 [8]: 1300 pM
- EC50 [3]: 33 pM
- EC50 [4]: 1480 pM
- IC50 [9]: 30 pM
- IC50 [5]: 70 pM
B6: Hu001c-23 (antibody, V domains shown)
VH: B1 VH with R38K, A40R, R44G, S68V, L70I
VL: B1 VL

- IC50 [1]: 128 pM
- EC50 [2]: 695 pM
- EC50 [3]: 139 pM
- EC50 [4]: 1610 pM
- IC50 [5]: 132 pM
B7: Hu001c-30 (antibody, V domains shown)
VH: B1 VH with R38K, A40R
VL: B1 VL with H71F

- IC50 [1]: 70 pM
- EC50 [2]: 608 pM
- EC50 [3]: 107 pM
- EC50 [4]: 1620 pM
- IC50 [5]: 110 pM
B8: Hu001c-32 (antibody, V domains shown)
VH: B1 VH with R38K, A40R
VL: B1 VL

- IC50 [6]: 30 pM
- EC50 [7]: 446 pM
- EC50 [8]: 1400 pM
- EC50 [3]: 37 pM
- IC50 [9]: 30 pM
B9: Hu001c-28 (antibody, V domains shown)
VH: B1 VH with A24T, R38K, A40R, R44G, S68V, L70I
VL: B1 VL with A43S

- IC50 [6]: 370 pM
- EC50 [7]: 205 pM
- EC50 [3]: 20 pM
- IC50 [9]: 120 pM
B10: Hu001c-21 (antibody, V domains shown)
VH: B1 VH with S68V, L70I
VL: B1 VL

- IC50 [6]: 44 pM
- IC50 [10]: 429 pM
- EC50 [11]: 573 pM
- EC50 [12]: 730 pM
- EC50 [3]: 96 pM and 103 pM
- EC50 [13]: 557 pM
- IC50 [14]: 448 pM
- EC50 [15]: 557 pM
- IC50 [5]: 55 pM
B11: mAb002c-VH-QG/VK-SG (antibody, V domains shown)
VH: QVQLQQPGAELVKPGASVRLSCKASGYTLTSYWMHWVKKRPGQGLEWIGEINPSQGRSNYNEKFKSKATLTVDRSSSTVYMQLGSLTSEDSAVYYCARRGVSGNYFDYWGQGTTLTVSS
VL: DIKMTQSPSSMYASLGERVTMTCKASQDINTYLSWFQQKPGKSPKTLIYRSNILVSGVPSRFSGSRSGQDYYLTITSLEYEDMGIYYCLQYDEFPYTFGGGTKLELK

- EC50 [16]: 63 pM
B12: mAb002c-VK-SG (antibody, V domains shown)
VH: B11 VH with Q55N
VL: B11 VL

- EC50 [16]: 50 pM
B13: mAb002c-VH-QG (antibody, V domains shown)
VH: B11 VH
VL: B11 VL with S56D

- EC50 [16]: 51 pM
B14: mAb002c-VH-NA (antibody, V domains shown)
VH: B11 VH with Q55N, G56A
VL: B11 VL with S56D

Source: patent publication US20210024646A1 (published 2021)
